According to publication PMC6365968 (Cell, 2018):
Each block holds one binder with its values, some of them ahead of it.

What was measured:
[1] = target: T1, human LAG3-Ig (immunoglobulin Fc-tagged LAG3 extracellular domain fusion protein) (human, UniProt P18627 23-450); assay: BLI
T1 sequence (looked up): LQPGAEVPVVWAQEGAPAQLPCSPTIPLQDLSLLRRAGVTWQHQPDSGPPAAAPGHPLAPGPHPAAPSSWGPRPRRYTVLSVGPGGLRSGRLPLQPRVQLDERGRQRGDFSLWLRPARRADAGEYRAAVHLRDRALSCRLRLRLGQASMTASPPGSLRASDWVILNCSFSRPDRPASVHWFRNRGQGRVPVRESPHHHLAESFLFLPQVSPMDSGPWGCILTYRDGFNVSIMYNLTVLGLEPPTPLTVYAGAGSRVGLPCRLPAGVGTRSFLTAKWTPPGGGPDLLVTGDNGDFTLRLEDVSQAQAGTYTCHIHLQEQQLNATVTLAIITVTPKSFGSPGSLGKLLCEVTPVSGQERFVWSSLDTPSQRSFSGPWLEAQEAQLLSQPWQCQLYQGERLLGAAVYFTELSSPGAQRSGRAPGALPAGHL

SEC-MALS = target: the molecule itself; assay: SEC-MALS
[2] = target: T2, mouse LAG3-Ig (Fc-tagged mouse LAG3 extracellular domain fusion protein) (mouse, UniProt Q61790 24-442); assay: BLI
T2 sequence (looked up): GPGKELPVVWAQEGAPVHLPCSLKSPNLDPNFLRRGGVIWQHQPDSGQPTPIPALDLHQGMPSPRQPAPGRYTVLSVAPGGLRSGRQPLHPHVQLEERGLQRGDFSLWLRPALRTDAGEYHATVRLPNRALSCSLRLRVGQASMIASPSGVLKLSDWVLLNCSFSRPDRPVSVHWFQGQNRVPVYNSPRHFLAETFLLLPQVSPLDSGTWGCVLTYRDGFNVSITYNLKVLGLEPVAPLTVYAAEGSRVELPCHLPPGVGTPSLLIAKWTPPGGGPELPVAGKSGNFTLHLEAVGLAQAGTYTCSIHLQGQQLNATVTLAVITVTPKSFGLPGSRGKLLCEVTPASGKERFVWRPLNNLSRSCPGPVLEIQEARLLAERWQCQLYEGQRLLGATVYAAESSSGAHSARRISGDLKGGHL

binding result [1]: binds
B1: FLAG-tagged human FGL1 (ligand, UniProt Q08830 23-312, looked up)
chain: LEDCAQEQMRLRAQVRLLETRVKQQQVKIKQLLQENEVQFLDKGDENTVIDLGSKRQYADCSEIFNDGYKLSGFYKIKPLQSPAEFSVYCDMSDGGGWTVIQRRSDGSENFNRGWKDYENGFGNFVQKHGEYWLGNKNLHFLTTQEDYTLKIDLADFEKNSRYAQYKNFKVGDEKNFYELNIGEYSGTAGDSLAGNFHPEVQWWASHQRMKFSTWDRDHDNYEGNCAEEDQSGWWFNRCHSANLNGVYYSGPYTAKTDNGIVWYTWHGWWYSLKSVVMKIRPNDFIPNVI

Kd [2]: ~1.5 nM
B2: FLAG-tagged mouse FGL1 (ligand, UniProt Q71KU9 23-314, looked up)
chain: LESESCLREQVRLRAQVHQLETRVKQQQTMIAQLLHEKEVQFLDKGSENSFIDLGGKRQYADCSEIYNDGFKQSGFYKIKPLQSLAEFSVYCDMSDGGGWTVIQRRSDGSENFNRGWNDYENGFGNFVQNNGEYWLGNKNINLLTIQGDYTLKIDLTDFEKNSSFAQYQSFKVGDKKSFYELNIGEYSGTAGDSLSGTFHPEVQWWASHQRMKFSTWDRDNDNYQGNCAEEEQSGWWFNRCHSANLNGVYYRGSYRAETDNGVVWYTWHGWWYSLKSVVMKIRPSDFIPNII
stoichiometry N (SEC-MALS): 2
